Measured values as given in publication PMC12255069 (Journal of Biological Engineering, 2025).

T1: ICOS-L-P (Q51P)-His (UniProt O75144 19-256, Q51P)
T1 construct: plasmid pMAZ-ICOS-L-P (Q51P)-His; source: Expi293F, transient transfection, purified (Ni-NTA agarose, SEC)
T1 sequence (looked up): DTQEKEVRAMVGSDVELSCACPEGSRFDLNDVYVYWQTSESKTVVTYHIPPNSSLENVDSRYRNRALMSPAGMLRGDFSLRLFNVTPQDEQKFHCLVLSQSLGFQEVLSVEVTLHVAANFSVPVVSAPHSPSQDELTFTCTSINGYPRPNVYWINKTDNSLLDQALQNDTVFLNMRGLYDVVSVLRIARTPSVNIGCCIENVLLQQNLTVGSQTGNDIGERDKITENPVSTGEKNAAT

T2: ICOS-L wild-type-His (UniProt O75144 19-256)
T2 construct: ICOS ligand (ICOS-L, B7-H2, CD275), ectodomain D1-T238; plasmid pMAZ-ICOS-L-wild-type-His; also called wild-type ICOS-L; B7-H2; source: Expi293F, transient transfection, purified (Ni-NTA agarose, SEC)
T2 sequence (looked up): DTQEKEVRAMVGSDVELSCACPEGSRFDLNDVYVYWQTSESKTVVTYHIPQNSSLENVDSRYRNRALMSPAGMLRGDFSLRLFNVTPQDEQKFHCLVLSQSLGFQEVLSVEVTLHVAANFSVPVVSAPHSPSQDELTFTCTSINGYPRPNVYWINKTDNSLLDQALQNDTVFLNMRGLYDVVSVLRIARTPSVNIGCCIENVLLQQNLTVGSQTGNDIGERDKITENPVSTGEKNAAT

T3: ICOS-L Y8 (Q51P, N57H)-His (UniProt O75144 19-256, Q51P | N57H)
T3 construct: plasmid pMAZ-ICOS-L-Y8(Q51P, N57H)-His; also called Y8 variant; source: Expi293F, transient transfection, purified (Ni-NTA agarose, SEC)
T3 sequence (looked up): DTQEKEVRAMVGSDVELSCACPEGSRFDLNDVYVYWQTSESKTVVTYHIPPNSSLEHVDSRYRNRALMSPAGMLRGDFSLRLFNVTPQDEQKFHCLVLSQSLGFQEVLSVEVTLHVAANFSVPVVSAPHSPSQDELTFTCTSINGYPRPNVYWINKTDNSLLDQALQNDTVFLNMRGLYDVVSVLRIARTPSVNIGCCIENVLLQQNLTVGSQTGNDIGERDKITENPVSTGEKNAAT

T4: ICOS-L-H (N57H)-His (UniProt O75144 19-256, N57H)
T4 construct: plasmid pMAZ-ICOS-L-H(N57H)-His; source: Expi293F, transient transfection, purified (Ni-NTA agarose, SEC)
T4 sequence (looked up): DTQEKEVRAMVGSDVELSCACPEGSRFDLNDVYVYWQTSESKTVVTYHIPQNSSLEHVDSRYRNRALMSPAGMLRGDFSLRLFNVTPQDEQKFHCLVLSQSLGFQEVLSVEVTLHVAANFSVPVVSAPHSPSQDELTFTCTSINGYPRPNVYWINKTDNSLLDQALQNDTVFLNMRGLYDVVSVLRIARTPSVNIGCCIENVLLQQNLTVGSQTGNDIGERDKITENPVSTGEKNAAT


Legend:
Conditions in all cases: both partners purified
[1] = molecular target: T1, ICOS-L-P (Q51P)-His; assay: BLI; Octet R8; hICOS-Fc (5 µg/mL) immobilised on a Protein A biosensor; serial dilutions of ICOS-L variants, 10 min association, 10 min dissociation, 1× PBS pH 7.4
[2] = molecular target: T2, ICOS-L wild-type-His; assay: as above
[3] = molecular target: T3, ICOS-L Y8 (Q51P, N57H)-His; assay: as above
[4] = molecular target: T4, ICOS-L-H (N57H)-His; assay: as above
[5] = molecular target: T3, ICOS-L Y8 (Q51P, N57H)-His; assay: ELISA; ICOS-Fc (hICOS-Fc or mICOS-Fc) coated at 4 µg/mL in 0.05 M Na2CO3 pH 9.6; serially diluted His-tagged ICOS-L variants, detected with mouse anti-His-HRP

Kd [1] [nM] | koff [1] [s⁻¹] | kon [1] [M⁻¹ s⁻¹] | Kd [2] [nM] | koff [2] [s⁻¹] | kon [2] [M⁻¹ s⁻¹] | Kd [3] [nM] | koff [3] [s⁻¹] | kon [3] [M⁻¹ s⁻¹] | Kd [4] [nM] | koff [4] [s⁻¹] | kon [4] [M⁻¹ s⁻¹] | binding result [5] | Binder
4.75 | 0.000961 | 202000 | 113 | 0.0337 | 298000 | 1.19 | 0.000179 | 150000 | 23.3 | 0.00567 | 244000 |  | hICOS-Fc (Fc fusion, human, UniProt Q9Y6W8 21-140, looked up, human Inducible T-cell Co-Stimulator (ICOS), extracellular domain E21-K140; plasmid pMAZ-hICOS-Fc; also called hICOS-hFc; human ICOS ectodomain fused to human Fc; source: Expi293F, transient transfection, purified (Protein A resin)) EINGSANYEMFIFHNGGVQILCKYPDIVQQFKMQLLKGGQILCDLTKTKGSGNTVSIKSLKFCHSQLSNNSVSFFLYNLDHSHANYYFCNLSIFDPPPFKVTLTGGYLHIYESQLCCQLK
 |  |  |  |  |  |  |  |  |  |  |  | binds | mouse ICOS (E21-K141)-hFc (Fc fusion, UniProt Q9WVS0 21-141, looked up, mouse ICOS, E21-K141; Plasmid pMAZ-mICOS-Fc; also called mICOS-Fc; source: Expi293F, transient transfection, purified (Protein A resin)) EINGSADHRMFSFHNGGVQISCKYPETVQQLKMRLFREREVLCELTKTKGSGNAVSIKNPMLCLYHLSNNSVSFFLNNPDSSQGSYYFCSLSIFDPPPFQERNLSGGYLHIYESQLCCQLK
